# Reference: article PMC5856381, “Phenotype-specific recombinant haptoglobin polymers co-expressed with C1r-like protein as optimized hemoglobin-binding therapeutics” (BMC Biotechnology, 2018)
# Biological target: T1, cleavage-site mutated recombinant haptoglobin Hp1S (Q101A, R102A), uncleaved proHp (human)
# T1 chain: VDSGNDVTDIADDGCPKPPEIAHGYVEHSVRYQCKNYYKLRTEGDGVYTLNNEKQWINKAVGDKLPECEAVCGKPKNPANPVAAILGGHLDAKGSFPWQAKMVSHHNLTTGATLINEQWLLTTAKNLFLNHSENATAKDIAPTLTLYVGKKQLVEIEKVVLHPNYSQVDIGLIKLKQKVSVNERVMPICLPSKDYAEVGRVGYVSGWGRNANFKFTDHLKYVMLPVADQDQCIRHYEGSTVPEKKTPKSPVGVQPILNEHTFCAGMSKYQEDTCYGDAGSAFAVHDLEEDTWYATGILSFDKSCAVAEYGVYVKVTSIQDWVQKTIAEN
# Assay: non-reducing SDS-PAGE; Coomassie-stained gel of non-reduced protein samples; disulfide-linked dimers and multimers
binder,measurement,value
"cleavage-site mutated recombinant haptoglobin Hp1S (Q101A, R102A), uncleaved proHp (natural protein, Uncleaved single-chain proHp1S with signal peptide removed; paper's Q101/R102 (precursor Hp1 numbering) = Q160/R161 of P00738; disulfide-linked dimer; N-glycosylated; C-terminal 8xHis tag omitted / …) VDSGNDVTDIADDGCPKPPEIAHGYVEHSVRYQCKNYYKLRTEGDGVYTLNNEKQWINKAVGDKLPECEAVCGKPKNPANPVAAILGGHLDAKGSFPWQAKMVSHHNLTTGATLINEQWLLTTAKNLFLNHSENATAKDIAPTLTLYVGKKQLVEIEKVVLHPNYSQVDIGLIKLKQKVSVNERVMPICLPSKDYAEVGRVGYVSGWGRNANFKFTDHLKYVMLPVADQDQCIRHYEGSTVPEKKTPKSPVGVQPILNEHTFCAGMSKYQEDTCYGDAGSAFAVHDLEEDTWYATGILSFDKSCAVAEYGVYVKVTSIQDWVQKTIAEN",stoichiometry N,2
